Literature values, collected in PMC3159772.

Columns and labels:
[1] = molecular target: NTS2 (Homo sapiens) (UniProt O95665)
[2] = molecular target: NTS1 (Homo sapiens) (UniProt P30989)
Chain of UniProt P30989 (P30989 whole entry): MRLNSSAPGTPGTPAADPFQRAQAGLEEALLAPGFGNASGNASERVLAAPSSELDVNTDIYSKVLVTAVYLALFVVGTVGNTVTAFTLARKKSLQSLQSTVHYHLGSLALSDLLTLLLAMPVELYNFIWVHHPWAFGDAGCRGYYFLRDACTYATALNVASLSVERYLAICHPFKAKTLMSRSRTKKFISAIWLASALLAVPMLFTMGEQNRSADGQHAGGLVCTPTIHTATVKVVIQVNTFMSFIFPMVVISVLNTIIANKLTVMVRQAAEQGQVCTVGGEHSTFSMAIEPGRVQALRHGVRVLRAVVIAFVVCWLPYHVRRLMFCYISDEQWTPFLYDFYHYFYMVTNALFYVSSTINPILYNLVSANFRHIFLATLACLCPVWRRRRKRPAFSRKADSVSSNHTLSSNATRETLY

Chain of UniProt O95665 (O95665 whole entry): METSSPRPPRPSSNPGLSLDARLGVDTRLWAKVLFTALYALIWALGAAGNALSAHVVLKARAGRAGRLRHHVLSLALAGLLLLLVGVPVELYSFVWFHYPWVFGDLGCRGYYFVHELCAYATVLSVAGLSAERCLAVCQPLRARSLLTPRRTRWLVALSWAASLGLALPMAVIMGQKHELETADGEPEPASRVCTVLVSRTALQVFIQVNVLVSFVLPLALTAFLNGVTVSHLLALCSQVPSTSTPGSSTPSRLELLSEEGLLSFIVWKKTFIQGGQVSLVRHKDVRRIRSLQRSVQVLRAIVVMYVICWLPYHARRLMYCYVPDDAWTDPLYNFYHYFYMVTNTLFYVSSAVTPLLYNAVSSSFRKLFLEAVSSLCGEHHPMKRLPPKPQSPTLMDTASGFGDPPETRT

Kd [1]: 2.1 nM | Kd [2]: 3.1 nM
Substance: NT69L (from UniProt P30990)
